Source: the DeepSol protein solubility set

Assay: soluble on expression in E. coli; label from the status in PepcDB or PDB records

Soluble on expression in E. coli, soluble:
GMKRAVVVFSGGQDSTTCLIQALQDYDDVHCITFDYGQRHRAEIEVAQELSQKLGAAAHKVLDVGLLNELATSSLTRDSIPVPDYDANAQGIPNTFVPGRNILFLTLASIYAYQVGAEAVITGVCETDFSGYPDCRDEFVKALNQAIVLGIARDIRFETPLMWLNKAETWALADYYQQLDTVRYHTLTCYNGIKGDGCGQCAACHLRANGLAQYQKDAATVMASLKQKVGLR
MSLNSLLLVSRIYQQTCIDDLAQLANEVKASFVRLVNEDANSHMIGTAMSTIGRAFTQRIIELVEAELGAAPLPYCFVAFGSMGRDEQLIVTDQDNALILDDRYDVQQHGAYFAQFAELVCRGLDRCGYPLCDGEIMASNPKWRMTRKEWETCFADWIDNPNPQALLNASIFFDLDGVYGRTKWAEQLSGFIVRRARRNQRFLACLARNALNRTPPLGFFKNFVMEKDGRHNNSINLKRRGTAPLADLIRVHALAAGSRAKNSFERLDDVIEAGLLPQGKGKDLRDALEFIAMVRIRHQAIDVEQEREADNSIEPEHLSDFERRNLKDAFQILSNGQNYLKYRYQANQHFKEGHHHHHH
MDIPIPTRQLFINGDWKAPVLNKRIPVINPATQNIIGDIPAATKEDVDVAVAAAKTALTRNKGADWATASGAVRARYLRAIAAKVTEKKPELAKLESIDCGKPLDEAAWDIDDVAGCFEYYADLAEKLDARQKAPVSLPMDTFKSHVLREPIGVVGLITPWNYPMLMATWKVAPALAAGCAAILKPSELASLTCLELGEICKEVGLPPGVLNILTGLGPEAGAPLATHPDVDKVAFTGSSATGSKIMTAAAQLVKPVSLELGGKSPLVVFEDVDLDKAAEWAIFGCFWTNGQICSATSRLILHESIATEFLNRIVKWIKNIKISDPLEEGCRLGPVVSEGQYEKILKFVSNAKSEGATILTGGSRPEHLKKGFFIEPTIITDVTTNMQIWREEVFGPVLCVKTFSTEEEAIDLANDTVYGLGAAVISNDLERCERVTKAFKAGIVWVNCSQPCFTQAPWGGVKRSGFGRELGEWGLDNYLSVKQVTQYISEEPWGWYQPPAKL
MAEDGPQKQQLDMPLVLDQDLTKQMRLRVESLKQRGEKKQDGEKLLRPAESVYRLDFIQQQKLQFDHWNVVLDKPGKVTITGTSQNWTPDLTNLMTRQLLDPAAIFWRKEDSDAMDWNEADALEFGERLSDLAKIRKVMYFLITFGEGVEPANLKASVVFNQL
MSLQDLATLYPQKTWSVVNQQFSADQGQLAFAHANTLLALTKECQQPIIHFWTLEKTVILGMMDTKLPELTAATDQLTAAGYHYFVRNAGGLGIVADTGILNLGFYLPEVADHLSINAAYELMKTLFSETFNTSNITIEHFEVQHSYCPGEYDLSINGQKFAGIAQRRSKNGIAILLYASIEGDQQARGTLMQHFYQAGKAQQQTRWTFPDVHPETMANLADLLHQPLTVASVSQQLSASLQSNSGLTLQSDLQTLMQEADYQTQLTKNTQLLRRYQPGYQPEGHHHHHH
MAHHHHHHMGVGFQSKKLQNFCHSGAGEMCALENCIPRWGSFPCNAPGLTPVYELSSFENVELPLIFQKSNIGDLLASTSDSVGQLNGFQARHSNTEGIKSQVSYTSVALSTTNRENLFGWVDCAALPLCSSSTAGASILLVTLLTRESRGKSCMCILDDLVCQLSNGPFNWGCGGDCHDLISISLPSEPRNHAACPIILPIAKLSRKEIWLREAAPKMDVETIIYEGDNQQHLVDDVANGTNAGSCAVMEAGCRPETALGPENVKYGDNESVTQCEVTVDITPSTEPSARCLHFSECTTPVSSNRSFMEPIPLSNMESKALRCRKFDGTSYEVLRRRAHSDALSLILKKYSEHLERVSQTSGRRGLDAHC
SHVEYSRITKFFQEQPLEGYTLFSHRSAPNGFKVAIVLSELGFHYNTIFLDFNLGEHRAPEFVSVNPNARVPALIDHGMDNLSIWESGAILLHLVNKYYKETGNPLLWSDDLADQSQINAWLFFQTSGHAPMIGQALHFRYFHSQKIASAVERYTDEVRRVYGVVEMALAERREALVMELDTENAAAYSAGTTPMSQSRFFDYPVWLVGDKLTIADLAFVPWNNVVDRIGINIKIEFPEVYKWTKHMMRRPAVIKALRGE
MKSTEKKELSHFRLKLETYLNEHFPEMSGNNPFITARSDEALTAYCDAVAQGFSHPEAESMASEVLYQGLHFSRYDTLVSVLEREFEQELPSPLPERLAPILLKNKAIQSVFAKYDLTDDFEASPEYEHLYTELTGTIVLLIESNHLPTIGGGNDTV
AALPDSVDWREKGCVTEVKYQGSCGASWAFSAVGALEAQLKLKTGKLVSLSAQNLVDCSTEKYGNKGCNGGFMTTAFQYIIDNKGIDSDASYPYKAMDQKCQYDSKYRAATCSKYTELPYGREDVLKEAVANKGPVSVGVDARHPSFFLYRSGVYYEPSCTQNVNHGVLVVGYGDLNGKEYWLVKNSWGHNFGEEGYIRMARNKGNHCGIASFPSYPEILQG

Soluble on expression in E. coli, not soluble:
MAHHHHHHMITDLLFKSQIIYNKKDILCARYILFYQHICKRGYKEAAPKVFNKKSSHTSRWIQRQISDRYVLRAKNDNYRSRAAYKLIELDNKYLFLKKNKIILDIGCYPGSWCQVILERTKNYKNKIIGIDKKIMDPIPNVYFIQGEIGKDNMNNIKNINYIDNMNNNSVDYKLKEILQDKKIDIILSDAAVPCIGNKIDDHLNSCELTLSITHFMEQYINIGGTYIVKMYLGSQTNNLKTYLKGMFQLVHTTKPKASRNESREIYLVCKNFLGRKKITEDVQIKGSFSSKEGYY
MGSDKIHHHHHHMCMYSATFTLEAITPVFMRGANQSKAEIRAASIKGLMRWWFRALSGSYFGNDVEGLRRVEEYVFGSTKRESRVVVEVVKEHVEERFCPLPMVWKKKKGVTTRVSQRAIAPGSKFTLLLTSDDEEVLKLACYSLIGLVYFGGIGFRCSRGAGSLKISSLKSDVQLIDLPKNKNQLGQMVNDLTVEIAKILKKTFLCDHENKNCTSYSSFWCFYLFLWGEKAELEEVYYRSNNLENERLTLLDLFEKEFKNKNNHLSNYGYRDFVFGLPRGTKKDRRASPIKVGITELSEKYHVRVSVFKTKIFKPGMNVKWDNIFVFLENIGAERIYPER
MLEHGGRLREAARRYDIPLADWLDLSTGIAPWPFSLPAIPEQAWTRLPESDDGLEAAACLYYGAERVLPLAGSQAAIQALPRMRRGGRVGVLSPCYAEHAHAWRQAGHLVREIGEAEVEPYLDSLDVLLVVNPNNPTGRVFEPAELLAWHARLQRRGGWLLVDEAFMDCTPQSSLAACSNRPGLIVLRSFGKFFGLAGARLGFALGERPLLQALAEQLGPWTVNGPVRHVAQSALRDRQQQRQQRERLLAASQRLEELLRRHGWPPAGGSALFQRLVDPRCAALHDYLARRGILTRQFEQPASLRLGLPADEAAWARLDAALLGFKEPAHE
MSGVWVFKNGVIRLVENPNQSGSDTQNRRKVMVYLPTGEVVSSYSTLEQILQSLGWERYFGGGDTDLLQFHKRSSIDLISLPRDFTKFNSVYMYDIVVKNPNYFHVRDSH
MGSDKIHHHHHHMGSLADTLRDRRQKLARLIDFPAILWSGGSNARNFPANRFPFRASSHFLYFAGLPLPNAAIHLEAGKLTLFIDDPAPGSALWHGETPKREEIAETIGADAAKPLSELTPFLAGAATIAVQDATTWTQQSQLLNRWVLPQSQPEGIDLELTKAIVTLRLIHDAGALAELRKAATVSVAAHKAGMVATANAKIEAEVRAAMESVFIAHNMTTAYNSIVTVHGEVLHNEQYHHPLQPGDLLLADVGGETELGWAADITRTWPVSGKFSPTQRDIYDVVLAAHDTCIANILPGVEYAEIHLVGARVIAEGLVNLGILRGNPEDLVEKDAHALFFPHGIGHLLGLDVHDMEDLGDLAGYEEGKKRSDRFGLGYLRLNRPLRTGMLVTIEPGFYQVPAILNDEKIRSRYQYTVNWERLSQFADVRGIRIEDDVLVTDTGSEVLTAALPNDADTVEHLVNKI
MTNQNVLLNISGVKFVLRIPNAVNLSLINREYEAFNNAQAYRAGLNVETPVLDAKSGVKLTRYLENSNTLSQIQLNEQSCLSQVVNNLYRLHNSEFVFRNVFSVFDEFRQYFSLLENKSAFYQADSRMDKLSAVFWQFEEINKEVILRPCHNDLVPENMLLQDDRLFFIDWEYSGLNDPLFDIATIIEEAHLSKEAADFLLETYCNQTNKYHKTEFQIAHKRLKIHRFCQNVLWFLWTKVKEEHGENFGDYALKRLDAAFKLLEELPLEHHHHHH
YAYKSNTYFKLKKKNIKLNGNIIKKSCKLGIPVALQNSLIAFSLIVLQKVVNGYGATFTTAFTVVSRIETLVQQPFMSLGAAVSTYTGQNIGAGLKDRVRKGFN
MGSDKIHHHHHHMDKLIAFLKDKKITEVECVISDMTGIARGKIAPVDKFVSEKGMRLPESVLLQTVTGDFIDDEVYYQLLDDADIDFVCVPDENAVFMLPWTVEATAQVIHDCYDRMGNPIELSPRNVLKKVLKLYEDKGWEPVIAPEMEFYLTKRSDDHDLPLKPPIGRSGRPEAGRQSFSIDAANEYDPLFEDMYDWCEIQGLDIDTLIHEDGPAQMEINFSHGNALSLADQVFIFKRTLKEAALKHDVCATFMAKPVTDEPGSAMHIHQSVLDIKTGKNIFTKDDGTQSKLFLSYIAGLQQYIPELLPLMAPSANSFRRFLPGTSAPVNLEWGVENRTCGLRIPESSPQNRRIENRIPGADANCYLAIAASLLCGYIGMVDDLKPSTPVTGKSNESRTNNENCLPLTLEEALVAMQSSDACIEYLGQSFTTGFVAVKQAELENFRRVVSSWEREFLLLTV
MGSDKIHHHHHHMLPPLDSDLMRGFLAVVETGSLTRAGHRLGRTQSAISMQIRKLEDSLGQSVFVREPRGVRLTERGKQLLPYAQRVVGLLDEAAIALREKPLSGPVRVGVPDEYIQGVLPAVLSAFSQRHPETQVTLRCDFSAPQLEALNSDKIDLAVIYEGYSTDEVEVLAVDPTVWVTSISHAQHLHRPLPISIYFSSDWCRDFALHSLEQIGIPYFAAFECDTSGGMRSAVSNGIAVAPLARSSIPPGCRELTAEDGFMGVDNARVVLRRNPAGSSTAIEAMVATLREAFWPLTKNGGL
MSSIGTGYDLAASTFSPDGRIFQVEYAQKAVDNAGTMIAIRGKNGVVVVADKLISSKLYTDNANPRMFNVNDNVGVAVAGNYPDGFALKNYAYGEAMKWLKDYREPMPIQNIANSVAEYIHIHTLGISRPFGAGAFFMSWNKQTGGRLFLVEPSGLNYEYKAWAVGKHRQAAKAEIEKLKIEELDVNQLVKEAARIIMVVRDENKDKNVQIEMGWVGEQTNGKYEEVPSEVVTAAEEWAIAKLDEDDMDD
MGKYFGTDGVRGVANSELTPELAFKVGRFGGYVLTKDKQRPKVLIGRDTRISGHMLEGALVAGLLSIGAEVMRLGVISTPGVSYLTKAMDAEAGVMISASHNPVQDNGIKFFGGDGFKLSDEQEAEIERLMDEPEDKLPRPVGADLGLVNDYFEGGQKYLQFLKQTADEDFTGIHVALDCANGATSSLATHLFADLDADVSTMGTSPNGLNINDGVGSTHPEALSAFVKEKNADLGLAFDGDGDRLIAVDEKGNIVDGDQIMYICSKHLKSEGRLKDDTVVSTVMSNLGFYKALEKEGIKSVQTAVGDRYVVEAMKKDGYNVGGEQSGHLIFLDYNTTGDGLLSAIMLMNTLKATGKPLSELAAEMQKFPQLLVNVRVTDKYKVEENEKVKAVISEVEKEMNGDGRILVRPSGTEPLVRVMAEAKTKELCDEYVNRIVEVVRSEMGLE
MAVTREDLEQNRLRAALGDSPVASTLLTEAALEASLASTLARLSAAPCEGQDAWVFGYGSLIWNPMIFHTEVARATVRGYHRGFYLYSRINRGTWDNPGLVLGLDRGGSCSGVAFRVPRAHAEREFRVLWRREMLTGAYLPRWLPTEIHGERILALAFVMNRTHEAYAGRLPDERVVGCLHKAVGLYGPAREYLQRTLIGLASNGLHDPYLDRLWQRLQAMDINAANAPSQTADTDGTGPLPDPYLSALEHHHHHH
